{"source": "paper PMC8869655", "about": "“Identification of the Kinase-Substrate Recognition Interface between MYPT1 and Rho-Kinase” (Biomolecules, 2022)", "molecules": {"B1": {"name": "MYPT1-684–868 aa-4A: GST-fused rat MYPT1 fragment 684–868 aa with the four phosphorylation sites replaced with Ala (protein)", "chain": "KARSRQARQSRRAAQGVTLTDLQEAEKTIGRSRSTRTREQENEEKDKEEKEKQDKEKQEEKKESEVSREDEYKQKYSRTYDETYARYRPVSTSSSSTPSSSSLSTLGSSLYASSQLNRPNSLVGITSAYSRGLTKDNEREGEKKEEEKEGEDKSQPKSIRERRRPREKRRAAGVSFWTQDSDENE", "modifications": "left off: GST, end not stated, kept", "notes": "GST-fused rat MYPT1 fragment 684–868 aa with the four phosphorylation sites replaced with Ala"}}, "key": {"[1]": {"target": "T1, GST-Rho-kinase-cat-L (bovine, residues 6–553) (Bos taurus, UniProt Q28021)", "T1 construct": "GST-Rho-kinase-cat-L (bovine, residues 6–553); made in house; host or cells: Sf9 cells (baculovirus)", "T1 sequence (Q28021 6-553)": "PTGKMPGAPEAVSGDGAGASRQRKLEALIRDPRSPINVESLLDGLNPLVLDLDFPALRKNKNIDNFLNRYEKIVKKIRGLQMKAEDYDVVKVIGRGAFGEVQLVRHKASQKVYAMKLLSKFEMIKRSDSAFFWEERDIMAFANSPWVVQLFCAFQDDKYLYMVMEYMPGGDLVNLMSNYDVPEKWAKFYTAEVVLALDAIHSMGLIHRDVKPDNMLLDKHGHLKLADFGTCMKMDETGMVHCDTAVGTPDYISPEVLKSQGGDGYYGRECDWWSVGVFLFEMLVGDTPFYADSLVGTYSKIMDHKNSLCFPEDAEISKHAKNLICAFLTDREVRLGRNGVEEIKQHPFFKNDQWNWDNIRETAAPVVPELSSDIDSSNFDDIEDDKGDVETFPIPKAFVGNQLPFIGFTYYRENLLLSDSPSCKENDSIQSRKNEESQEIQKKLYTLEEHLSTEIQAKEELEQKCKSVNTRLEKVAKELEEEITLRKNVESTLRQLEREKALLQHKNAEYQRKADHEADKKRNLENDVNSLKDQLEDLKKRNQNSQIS", "assay": "In vitro kinase assay, Rho-kinase-cat-L activity", "assay_type": "biochemical", "conditions": "S6 rsk substrate peptide as substrate, 50 μM γ-[32P]ATP, 30 °C, inhibitor at the indicated concentrations, scintillation counting, N = 3", "protocol": "(§1) The kinase reactions were performed in 50 μL of a reaction mixture (25 mM Tris-HCl, pH 7.5, 1 mM EDTA, 1 mM EGTA, 1 mM DTT, 5 mM MgCl2, and 50 μM γ-[^32P]ATP [1–20 GBq/mmol]), GST-Rho-kinase-cat-L or other kinases (1–10 nM), and substrates for 10–20 min at 30 °C. The reaction mixtures were applied to cation-exchange membranes and washed with 75 mM phosphoric acid three times, which was followed by scintillation counting.\nFigure 4 Direct inhibition of Rho-kinase activity in vitro. (A) In vitro phosphorylation of S6 rsk substrate peptide by Rho-kinase. GST-Rho-kinase-cat-L or GST-ROCK1-cat-L activity was examined using the S6 rsk substrate peptide as a substrate in the presence of γ-[^32P]ATP. GST-MYPT1-684–868 aa-WT or -4A was added at the indicated concentrations. The reaction mixtures were applied onto cation-exchange membranes, followed by scintillation counting. N = 3. (B) Effects of the deletion of DMs on the inhibition of Rho-kinase activity in vitro. GST-Rho-kinase-cat-L activity was examined using the S6 rsk substrate peptide as a substrate in the presence of γ-[^32P]ATP. GST-MYPT1-684–868-4A with or without DMs was added at the indicated concentrations. The reaction mixtures were applied onto cation-exchange membranes, followed by scintillation counting. N = 3. The deletion of DM1 or DM2 moderately weakened the inhibitory effect and the deletion of both DM1 and DM2 completely abrogated the inhibitory effects of the MYPT1 fragment on the Rho-kinase activity. (C) Sequences of the DMs and phosphorylation sites of MYPT1. The sequences of MYPT1 683–715 aa and 836-860 aa and synthetic peptides are shown. Basic (blue), acidic (red), and aliphatic (green) amino acids within DMs are indicated. Phosphorylation sites are replaced by Ala in pseudosubstrate (PS) peptides. (D) Inhibition of Rho-kinase activity by PS2 + DM2 synthetic peptide. GST-Rho-kinase-cat-L activity was examined using the S6 rsk substrate peptide as a substrate in the presence of γ-[^32P]ATP. Synthetic peptides were added at the indicated concentrations. The reaction mixtures were applied onto cation-exchange membranes, followed by scintillation counting. N = 3. (E) Inhibition of Rho-kinase activity by PS1 + DM3 synthetic peptide. GST-Rho-kinase-cat-L activity was examined using the S6 rsk substrate peptide as a substrate in the presence of γ-[^32P]ATP. Synthetic peptides were added at the indicated concentrations. The reaction mixtures were applied onto cation-exchange membranes, followed by scintillation counting. N = 3."}, "[2]": {"tested_on": "GST-PKACα", "assay": "In vitro kinase assay, PKA activity", "assay_type": "biochemical", "conditions": "S6 rsk substrate peptide (40 µM) as substrate, γ-[32P]ATP, N=3, Figure S3B", "protocol": "as §1\n(§2) Supplem entary Figure S3. Inhibition of the kinase activity by the MYPT1-684-868 aa-4A […]\n(§3) (A) In vitro phosphorylation of various substrates by Rho -kinase. S6 rsk substrate peptide (40 µM), GST-MYPT1 fragments (0.5 µM), GST-MLC (0.5 µM), or GST-Scrib-C (1235-1630 aa) (0.5 µM) was phosphorylated by GS T-Rho-kinase-cat-L with 1 µM GST or GST-MYPT1-684-868 aa-4A in the presence of γ-[32P]ATP. Data represent means ± SD. N=3. (B ) GS T-Rho-kinase-cat-L, GST-MRCKβ-cat-L, and GST-PKACα activities were examined using the S6 rsk substrate peptide (40 µM) as a substrate in the presence of γ-[32P]ATP and GST-MYPT1-684-868 aa-4A fragment at the indicated concentrations. The reaction mixtures were applied onto cation-exchange membranes, followed by scintillation counting. Data represent means ± SD. N=3.\n(§4) (1 picture or pasted object on this page, not shown here)"}, "[3]": {"tested_on": "GST-MRCKβ-cat-L (human, residues 1–550)", "assay": "In vitro kinase assay, MRCKβ activity", "assay_type": "biochemical", "conditions": "S6 rsk substrate peptide (40 µM) as substrate, γ-[32P]ATP, N=3, Figure S3B", "protocol": "as §1, §2, §3, §4"}, "[4]": {"tested_on": "NIH3T3 cells", "assay": "Actin stress fiber formation in NIH3T3 cells", "assay_type": "cell-based", "conditions": "GST-MYPT1 fragment expressed in NIH3T3 cells, 24 h, phalloidin staining, N = 4", "protocol": "NIH3T3 cells were seeded on polylysine-coated 13-mm coverslips at a density of 4 × 10^4 cells/well in a 6-well dish and cultured in DMEM with 10% calf serum overnight. The cells were transfected with plasmid using LIPOFECTAMINE LTX reagent (Thermo Fisher Scientific, Waltham, MA, USA), according to the manufacture’s protocol. After 24 h, the cells were incubated in fresh DMEM containing 10% calf serum for 20 min, fixed with 3.7% formaldehyde in PBS for 10 min and then treated with PBS containing 0.2% Triton X-100 for 10 min. The fixed cells were blocked with 1% bovine serum albumin for 30 min and stained with the indicated antibodies. Cover slips were mounted with Fluoromount (Diagnostic Biosystems, Pleasanton, CA, USA) and the fluorescence was examined using a confocal laser scanning microscope LSM 780 and LSM5 PASCAL built around an Axio Observer Z1 or Axiovert 200M under the control of LSM software (Carl Zeiss, Oberkochen, Germany). Images were processed using ImageJ or Photoshop (Adobe, San Jose, CA, USA).\nFigure 3 Inhibition of MYPT1 phosphorylation by the Rho-kinase-binding fragment of MYPT1. (A,B) Effect of the overexpression of Rho-kinase-binding MYPT1 fragments on GFP-MYPT1 phosphorylation in COS7 cells. Full-length GFP-MYPT1 and the GST-MYPT1 Rho-kinase binding fragment were transiently expressed in COS7 cells. The cell lysates were analyzed by immunoblot analysis using anti-MYPT1-pT855 (top panel), anti-GFP (middle), or anti-GST (bottom) antibodies. The phospho-GFP-MYPT1 levels were quantified and normalized by GFP-MYPT1 levels. Data represent means ± SD. **, p < 0.01, ***, p < 0.001 as compared with the control. (C) Effect of the overexpression of Rho-kinase-binding MYPT1 fragments on stress fiber formation in NIH3T3 cells. GST-MYPT1 fragments were expressed in NIH3T3 cells. The cells were fixed in formaldehyde, and immunostained with phalloidin and anti-GST antibody. […] The percentages of cells with stress fibers throughout the cell (SF(++)), cells with stress fibers partly in the cell (SF(+)), and cells without stress fibers (SF(–)) were analyzed. […]"}, "[5]": {"target": "T1, GST-Rho-kinase-cat-L (bovine, residues 6–553)", "assay": "In vitro kinase assay, Rho-kinase-cat-L activity", "assay_type": "biochemical", "conditions": "1 µM inhibitory fragment, Figure S3A, N=3"}}, "data": [{"molecule": "B1", "values": [{"measurement": "Inhibition of Rho-kinase-cat-L activity (in words)", "setting": "[1]", "value": "inhibited the Rho-kinase-cat-L activity"}, {"measurement": "Inhibition of PKA activity (in words)", "setting": "[2]", "value": "did not inhibit"}, {"measurement": "Inhibition of MRCKβ activity (in words)", "setting": "[3]", "value": "moderately inhibited"}, {"measurement": "Effect on actin stress fiber formation", "setting": "[4]", "value": "reduced actin stress fibers"}, {"measurement": "Inhibition of phosphorylation of MLC by Rho-kinase", "setting": "[5]; substrate GST-MLC (0.5 µM)", "value": "inhibited"}, {"measurement": "Inhibition of phosphorylation of MYPT1 by Rho-kinase", "setting": "[5]; substrate GST-MYPT1 fragments (0.5 µM)", "value": "much weaker"}, {"measurement": "Inhibition of phosphorylation of Scrib by Rho-kinase", "setting": "[5]; substrate GST-Scrib-C (1235-1630 aa) (0.5 µM)", "value": "inhibited"}]}]}
